From patent US20260285966 (published 2026)
Read-outs that look alike come from different tables or passages of the source.

T1: cynomolgus IL-15+IL-15Ralpha complex (Macaca fascicularis)
T1 chain 1: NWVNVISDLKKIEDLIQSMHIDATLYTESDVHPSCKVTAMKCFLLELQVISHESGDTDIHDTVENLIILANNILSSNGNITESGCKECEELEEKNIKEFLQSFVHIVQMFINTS
T1 chain 2: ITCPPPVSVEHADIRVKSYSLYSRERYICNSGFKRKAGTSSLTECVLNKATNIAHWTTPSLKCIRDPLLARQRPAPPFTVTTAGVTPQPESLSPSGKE


What was measured:
Test in all cases: SPR
[1] = target: human IL-15+IL-15Ralpha complex (human)
[2] = target: human IL-15+IL-15Ralpha complex (human); remark: listed apart in the source
[3] = target: human IL-15+IL-15Ralpha complex (human); remark: listed apart in the source
[4] = target: T1, cynomolgus IL-15+IL-15Ralpha complex
[5] = target: human IL-15+IL-15Ralpha complex (human); remark: listed apart in the source

| Kd [1] [nM] | Kd [2] [nM] | Kd [3] [nM] | Kd [4] [nM] | Kd [5] [nM] | Binder |
| --- | --- | --- | --- | --- | --- |
| 0.353 | – | – | – | – | R1A3 (antibody, V domains shown) VH: EVQLVQSGAEVKKPGESLKISCKVSGYFFTTYWIGWVRQMPGKGLEYMGIIYPGDSDTRYSPSFQGQVTISADKSISTAYLQWSSLKASDTAMYYCARGGHWNAFDFWGQGTLVTVSS VL: EIVLTQSPGTLSLSPGERATLSCRASQSVSSSYLAWYQQKPGQAPRLLIYGASRRATGIPDRFSGSGSGTDFTLTISRLEPEDFAVYYCQQFDASQTFGQGTKLEIS |
| – | 0.239 | 0.337 | 0.148 | 0.201 | CALY-002 (antibody, V domains shown) VH: EVQLVESGGGLVQPGGSLRLSCAASEFTFSNYAMSWVRQAPGKGLEWVATISRGGDYTYYPDSVKGRFTISRDNSKNTLYLQMNSLRAEDTAVYYCARRVSMITGGWAMDYWGQGTLVTVSS VL: DVVMTQSPLSLPVTLGQPASISCRSSQSIVDITGNTYLEWYQQRPGQSPRLLIYKVFNRFSGVPDRFSGSGSGTDFTLKISRVEAEDVGVYYCFQDSFVPYTFGQGTKLEIK |
